Test results taken from publication PMC3617921.

Biological target: MBP-Brh2 (U. maydis)
Experiment: pull-down

fold lower level of Dss1 in the DNA-bound fraction than with Brh2Δ362–493::OB-AB: > 20 fold
Substance: hexahistidine (His)-tagged Dss1 (natural protein)
